The record followed here is patent publication US20230048200.

This data set concerns the target Human type 1 atelo-collagen (UniProt P02452).

Chain of Human type 1 atelo-collagen (P02452 179-1192, chain 1 of 2): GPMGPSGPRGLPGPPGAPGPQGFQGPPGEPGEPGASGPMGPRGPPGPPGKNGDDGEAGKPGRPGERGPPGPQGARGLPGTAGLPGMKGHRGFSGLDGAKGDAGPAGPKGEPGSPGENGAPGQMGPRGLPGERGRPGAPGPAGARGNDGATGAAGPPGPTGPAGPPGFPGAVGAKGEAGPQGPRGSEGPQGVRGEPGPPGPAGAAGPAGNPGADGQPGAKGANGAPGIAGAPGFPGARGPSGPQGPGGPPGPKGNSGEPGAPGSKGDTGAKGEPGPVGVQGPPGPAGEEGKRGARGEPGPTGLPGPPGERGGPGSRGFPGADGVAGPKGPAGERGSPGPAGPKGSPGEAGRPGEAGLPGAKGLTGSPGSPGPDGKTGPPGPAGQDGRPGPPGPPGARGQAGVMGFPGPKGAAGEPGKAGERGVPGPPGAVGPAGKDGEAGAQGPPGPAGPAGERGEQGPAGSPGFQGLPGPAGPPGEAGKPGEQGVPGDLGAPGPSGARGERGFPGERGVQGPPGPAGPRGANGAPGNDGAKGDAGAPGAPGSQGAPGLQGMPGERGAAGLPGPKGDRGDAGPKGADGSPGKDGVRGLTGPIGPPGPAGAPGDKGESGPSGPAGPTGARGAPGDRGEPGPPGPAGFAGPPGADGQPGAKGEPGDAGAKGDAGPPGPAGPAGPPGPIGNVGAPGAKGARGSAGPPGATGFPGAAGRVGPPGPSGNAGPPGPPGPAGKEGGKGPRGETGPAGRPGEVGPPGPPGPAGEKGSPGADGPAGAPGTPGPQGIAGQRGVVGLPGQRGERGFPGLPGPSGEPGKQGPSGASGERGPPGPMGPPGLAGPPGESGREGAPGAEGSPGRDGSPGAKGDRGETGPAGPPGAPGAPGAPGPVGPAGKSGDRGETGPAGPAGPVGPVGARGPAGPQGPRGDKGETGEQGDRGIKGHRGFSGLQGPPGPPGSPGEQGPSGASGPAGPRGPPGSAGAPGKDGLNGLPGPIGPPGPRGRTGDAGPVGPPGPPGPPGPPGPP
Chain of Human type 1 atelo-collagen (chain, as listed by the source, chain 2 of 2): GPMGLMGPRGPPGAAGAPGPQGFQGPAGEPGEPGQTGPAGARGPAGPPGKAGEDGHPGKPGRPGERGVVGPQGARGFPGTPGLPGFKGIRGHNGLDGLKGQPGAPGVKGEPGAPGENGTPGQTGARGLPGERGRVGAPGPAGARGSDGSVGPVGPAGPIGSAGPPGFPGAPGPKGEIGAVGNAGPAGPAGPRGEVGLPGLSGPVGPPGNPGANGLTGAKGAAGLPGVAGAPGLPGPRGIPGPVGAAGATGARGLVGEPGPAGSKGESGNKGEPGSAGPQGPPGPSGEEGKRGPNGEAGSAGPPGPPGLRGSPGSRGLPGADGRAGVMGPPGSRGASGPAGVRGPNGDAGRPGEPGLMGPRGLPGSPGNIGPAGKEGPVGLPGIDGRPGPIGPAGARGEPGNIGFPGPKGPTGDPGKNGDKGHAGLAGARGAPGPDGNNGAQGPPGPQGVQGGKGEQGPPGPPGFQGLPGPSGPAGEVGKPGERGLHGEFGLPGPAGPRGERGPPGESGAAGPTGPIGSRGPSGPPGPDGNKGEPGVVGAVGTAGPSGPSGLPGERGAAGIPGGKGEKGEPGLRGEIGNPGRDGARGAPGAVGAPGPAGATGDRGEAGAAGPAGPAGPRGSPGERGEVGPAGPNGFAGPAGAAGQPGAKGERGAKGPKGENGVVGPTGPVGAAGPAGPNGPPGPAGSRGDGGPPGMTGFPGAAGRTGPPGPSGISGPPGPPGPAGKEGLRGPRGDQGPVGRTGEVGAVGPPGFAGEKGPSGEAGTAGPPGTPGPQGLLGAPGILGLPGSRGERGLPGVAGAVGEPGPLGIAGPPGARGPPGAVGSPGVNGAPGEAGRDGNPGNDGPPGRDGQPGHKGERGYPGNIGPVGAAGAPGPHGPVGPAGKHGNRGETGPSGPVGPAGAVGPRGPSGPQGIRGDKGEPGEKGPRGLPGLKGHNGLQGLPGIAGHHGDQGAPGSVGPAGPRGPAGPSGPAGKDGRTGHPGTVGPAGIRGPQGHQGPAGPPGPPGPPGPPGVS

Take “matrix metalloproteinase-1 (MMP-1), activated with 2 mM APMA”: the “reduction in the full length alpha1(I) and alpha2(I) chains (SDS-PAGE, band quantitation)” value is on record as “an approximately 7.4-fold (over 80%) reduction in the full length of these chains when collagen was treated with MMP-1”.
